# According to patent US20240366778A1 (CSPC MEGALITH BIOPHARMARCEUTICAL, published 2024):
# Positions count from the first letter of the chain named.
# T1: Recombinant Rat Nectin-4 His-tag Protein, CF (rat) (UniProt D3ZET1)
# T1 sequence: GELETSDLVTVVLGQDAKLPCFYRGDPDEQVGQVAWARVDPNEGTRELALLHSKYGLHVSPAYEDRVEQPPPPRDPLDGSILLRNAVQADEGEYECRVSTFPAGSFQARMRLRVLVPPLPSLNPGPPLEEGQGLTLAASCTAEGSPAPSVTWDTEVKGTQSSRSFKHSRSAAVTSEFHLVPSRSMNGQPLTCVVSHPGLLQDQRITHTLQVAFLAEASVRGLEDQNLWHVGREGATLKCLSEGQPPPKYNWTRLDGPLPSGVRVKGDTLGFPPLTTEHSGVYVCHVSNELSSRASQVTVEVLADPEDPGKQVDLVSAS
# T2: Human Nectin-4 Protein, His Tag (human, UniProt Q96NY8 32-349)
# T2 construct: not shown: His tag
# T2 sequence (looked up): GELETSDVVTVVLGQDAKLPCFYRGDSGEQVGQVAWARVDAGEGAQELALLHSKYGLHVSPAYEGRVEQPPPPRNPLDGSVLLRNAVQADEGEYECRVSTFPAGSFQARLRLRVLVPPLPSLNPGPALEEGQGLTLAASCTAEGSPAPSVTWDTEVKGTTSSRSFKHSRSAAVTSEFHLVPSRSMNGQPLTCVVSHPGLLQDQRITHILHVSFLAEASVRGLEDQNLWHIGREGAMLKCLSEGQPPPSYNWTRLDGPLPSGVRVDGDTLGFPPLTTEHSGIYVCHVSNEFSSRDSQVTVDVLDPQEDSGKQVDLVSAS
# T3: Mouse Nectin-4 Protein, His Tag (mouse, UniProt Q8R007 31-347)
# T3 construct: not shown: His tag
# T3 sequence (looked up): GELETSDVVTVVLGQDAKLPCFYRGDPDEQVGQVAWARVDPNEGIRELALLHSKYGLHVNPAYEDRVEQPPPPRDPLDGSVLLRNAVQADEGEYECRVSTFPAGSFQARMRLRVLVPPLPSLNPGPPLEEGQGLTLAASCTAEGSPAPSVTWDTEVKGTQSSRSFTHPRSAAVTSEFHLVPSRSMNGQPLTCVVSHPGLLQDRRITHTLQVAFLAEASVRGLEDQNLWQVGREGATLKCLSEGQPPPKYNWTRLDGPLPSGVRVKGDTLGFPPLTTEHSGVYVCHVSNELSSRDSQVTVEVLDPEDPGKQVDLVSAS
# T4: Recombinant Rat Nectin-4 His-tag Protein, CF (rat, UniProt D3ZET1 31-348)
# T4 construct: not shown: His tag
# T4 sequence: T1 sequence
# T5: Cynomolgus Nectin-4 Protein, His Tag (cynomolgus, UniProt A0A2K5WES1 32-349)
# T5 construct: not shown: His tag
# T5 sequence: T2 sequence (looked up) with V39A, I230V
# B1: PADCEV (antibody, INN chains, looked up, V domains shown)
# VH: EVQLVESGGGLVQPGGSLRLSCAASGFTFSSYNMNWVRQAPGKGLEWVSYISSSSSTIYYADSVKGRFTISRDNAKNSLSLQMNSLRDEDTAVYYCARAYYYGMDVWGQGTTVTVSS
# VL: DIQMTQSPSSVSASVGDRVTITCRASQGISGWLAWYQQKPGKAPKFLIYAASTLQSGVPSRFSGSGSGTDFTLTISSLQPEDFATYYCQQANSFPPTFGGGTKVEIKR
# modifications: vedotin (MMAE) payload
# B2: humanized antibody SWY2001-Ab3 (antibody, human IgG1, kappa, V domains shown)
# VH: QVQLVQSGAEVKKPGASVKVSCKASGYTFTSYYIHWVRQAPGQRLEWMGWIYPGNVNTKYNENFRDRVTITRDTSASTAYMELSSLRSEDTAVYYCARGIYYFDYWGQGTLVTVSS
# VL: AIQMTQSPSSLSASVGDRVTITCKASQSVNNDVAWYQQKPGKAPKLLIYYASNRDTGVPSRFSGSGSGTDFTLTISSLQPEDFATYFCHQDYSSPFTFGGGTKVEIKR
# notes: Full-length IgG1, kappa
# B3: humanized antibody SWY2001-Ab2 (antibody, human IgG1, kappa, V domains shown)
# VH: B2 VH
# VL: B2 VL with P80A, F83L, T85V
# notes: Full-length IgG1, kappa
# B4: humanized antibody SWY2001-Ab1 (antibody, human IgG1, kappa, V domains shown)
# VH: B2 VH
# VL: B2 VL with A1I, S9K, S10F, K42Q, A43S, S60D
# B5: Chimeric antibody (antibody, V domains shown)
# VH: QVQLQQSGPVLVKPGASVRISCKASGYTFTSYYIHWVKQRPGQGLEWIGWIYPGNVNTKYNENFRDKATLTADKSSSTSYMQLSSLTSEDSAVYFCARGIYYFDYWGQGTTLTVSS
# VL: IIVMTQTPKFLLVSAGDRVTITCKASQSVNNDVAWYQEKPGQSPKLLIYYASNRDTGVPDRFTGSGYGTDFTFTISTVQAEDLAVYFCHQDYSSPFTFGSGTKLEIK
# notes: also called chimeric anti-Nectin-4 antibody; murine antibody variable regions on human IgG1
# Biological target: Cynomolgus Nectin-4 Protein, His Tag (cynomolgus)
# Assay: ELISA, Nectin-4 protein with antibody dilutions, goat anti-human IgG secondary antibody
row,Binder,EC50 [µg/mL]
1,B1,0.000968

# Biological target: T1, Recombinant Rat Nectin-4 His-tag Protein, CF (rat)
# Assay: as above
row,Binder,EC50 [µg/mL]
1,B1,0.00101

# Biological target: T2, Human Nectin-4 Protein, His Tag
# Assay: BLI (Fortebio), antibody with human Nectin-4 protein
# Method: In this experiment, Fortebio was used to detect the affinity of Nectin-4 humanized antibodies to human Nectin-4 protein. After the Nectin-4 protein was incubated with the anti-Nectin-4 antibody sample, the signal value was detected by Fortebio to analyze the affinity of the sample to human Nectin-4. […] The chimeric antibodies were engineered on the basis of mouse-derived antibodies, and the constant region is selected from human IgG1.
Binder,Kd [nM],koff [s⁻¹],kon [M⁻¹ s⁻¹]
B2,5.08,0.00425,836000
B3,5.51,0.00414,752000
B4,5.92,0.00447,756000
B5,2.8,0.00181,646000

# Biological target: T3, Mouse Nectin-4 Protein, His Tag
# Assay: ELISA, Nectin-4 protein with antibody dilutions, goat anti-human IgG secondary antibody
# Method: (§1) The affinities of Nectin-4 humanized antibodies to Nectin-4 proteins of different species were performed by ELISA. Nectin-4 proteins of different species (human Nectin-4, cynomolgus Nectin-4, rat Nectin-4, mouse Nectin-4) were incubated with Nectin-4 humanized antibody samples of different concentrations, and then incubated with the secondary antibody which binds IgG (Goat anti-Human IgG (H+L) Cross-Adsorbed Secondary Antibody. The signal values of different concentrations were detected by ELISA to analyze the affinities of the samples to Nectin-4 proteins of different species. The experimental results are shown in Table 6, showing that the Nectin-4 humanized antibodies have good affinity for human, rat and cynomolgus Nectin-4 proteins.
row,Binder,EC50 [µg/mL]
1,B2,2210
2,B3,1050
3,B1,0.0824

# Biological target: T4, Recombinant Rat Nectin-4 His-tag …
# Assay: as above
# Method: as §1
row,Binder,EC50 [µg/mL]
1,B2,0.000942
2,B3,0.000726
3,B4,0.000857

# Biological target: T2, Human Nectin-4 Protein, His Tag
# Assay: as above
# Method: as §1
row,Binder,EC50 [µg/mL]
1,B2,0.00102
2,B3,0.00113
3,B4,0.00121
4,B1,0.000877

# Biological target: T5, Cynomolgus Nectin-4 Protein, His Tag
# Assay: as above
# Method: as §1
row,Binder,EC50 [µg/mL]
1,B2,0.000832
2,B3,0.000646
3,B4,0.000647
